Laboratory results as given in article PMC2735620.
Residue numbers refer to the chain shown, from its start. Names and notes keep the numbering of the source.

B1: LARG RH/DH/PH-F1098D (domain or fragment)
chain: SPSTRIAPHIIGAEDDDFGTEHEQINGQCSCFQSIELLKSRPAHLAVFLHHVVSQFDPATLLCYLYSDLYKHTNSKETRRIFLEFHQFFLDRSAHLKVSVPDEMSADLEKRRPELIPEDLHRHYIQTMQERVHPEVQRHLEDFRQKRSMGLTLAESELTKLDAERDKDRLTLEKERTCAEQIVAKIEEVLMTAQAVEEDKSSTMQYVILMYMKHLGVKVKEPRNLEHKRGRIGFLPKIKQSMKKDKEGEEKGKRRGFPSILGPPRRPSRHDNSAIGRAMELQKARHPKHLSTPSSVSPEPQDSAKLRQSGLANEGTDAGYLPANSMSSVASGASFSQEGGKENDTGSKQVGETSAPGDTLDGTPRTLNTVFDFPPPPLDQVQEEECEVERVTEHGTPKPFRKFDSVAFGESQSEDEQFENDLETDPPNWQQLVSREVLLGLKPCEIKRQEVINELFYTERAHVRTLKVLDQVFYQRVSREGILSPSELRKIFSNLEDILQLHIGLNEQMKAVRKRNETSVIDQIGEDLLTWFSGPGEEKLKHAAATFCSNQPFALEMIKSRQKKDSRFQTFVQDAESNPLCRRLQLKDIIPTQMQRLTKYPLLLDNIAKYTEWPTEREKVKKAADHCRQILNYVNQAVKEAENKQRLEDYQRRLDTSSLKLSEYPNVEELRNLDLTKRKMIHEGPLVWKVNRDKTIDLYTLLLEDILVLLQKQDDRLVLRCHSKILASTADSKHTFSPVIKLSTVLVRQVATDNKALDVISMSDNGAQIYELVAQTVSEKTVWQDLICRMAASVKEQS
B2: LARG RH/DH/PH-E354K (domain or fragment)
chain: B1 chain with E14K, D758F

Biological target: Gαi/13 (N-terminally hexahistidine tagged chimera), AlF4−-activated
Assay: flow cytometry protein interaction assay

| Binder | Ki [nM] |
| --- | --- |
| B1 | 20 |
| B2 | 540 |
